Source: patent US4016042A, “Substrate for the quantitative determination of enzymes” (Pentapharm A.G., priority 1974, dated 1977)

Substrate: N=C(N)NCCC[C@H](NC(=O)[C@H](Cc1ccccc1)NC(=O)[C@@H]1CCCN1C(=O)c1ccccc1)C(=O)Nc1ccc([N+](=O)[O-])cc1
Experiment: Km and vmax determination with substrate (Lineweaver-Burk), plasmin
Assay type: biochemical
Details: other: plasmin; substrate concentration varied, enzyme constant; measured at 405 nm
Description: As is evident from equation (2) constants Km and k3 determine the activity of the enzyme substrate for a given enzyme. For determining these constants the following procedure is followed:
The enzyme and the substrate are mixed in a buffer solution, and the reaction is followed spectrophotometrically for 2 to 30 minutes. The concentration of substrate [S] is varied, whereas the enzyme concentration [E] is kept constant. If the extinction (OD) (= optical density) is plotted in a co-ordinate system as a function of time, a curve is obtained the tangent of which (difference in extinction per minute, Δ OD/minute, from which the quantity in μmoles of pNA/min (v) can be calculated) at time zero corresponds to the ideal course of the hydrolysis. By means of this tangent the initial rate of the hydrolysis can be determined.
If 1/v is plotted against 1/[S], a Lineweaver-Burk diagram (cf. "Kurzes Lehrbuch der Biochemie" by P. KARSON, Georg Thieme-Verlag, Stuttgart, 1967, p. 70) is obtained from which vmax and Km can be determined graphically.
Km and k3 = vmax /E were determined with N^α-Bz-Pro-Phe-Arg-pNA^. HCl (i.e. the substrate prepared according to Example 1) for plasma kallikrein, trypsin, plasmin and thrombin.

B1: plasmin (Homo sapiens) (protein)
chain: VVGGCVAHPHSWPWQVSLRTRFGMHFCGGTLISPEWVLTAAHCLEKSPRPSSYKVILGAHQEVNLEPHVQEIEVSRLFLEPTRKDIALLKLSSPAVITDKVIPACLPSPNYVVADRTECFITGWGETQGTFGAGLLKEAQLPVIENKVCNRYEFLNGRVQSTELCAGHLAGGTDSCQGDSGGPLVCFEKDKYILQGVTSWGLGCARPNKPGVYVRVSRFVTWIEGVMRNN
In the case of B1, the Km is reported as 140 µM.
